Reference: patent US20250042957A1 (Molecular Partners, published 2025)

Columns and labels:
VEGF165 [1] = target: T1, VEGF165 (UniProt P15692-4 27-191, biotinylated in the ELISA of Example 4 (site not stated)); assay: SPR (ProteOn), VEGF165 immobilized, multi-trace
T1 construct: also called biotinylated VEGF165; soluble VEGF

[2] = target: T2, CD3-specific binding domain (SEQ ID NO: 3) (biotinylated when used as immobilized SPR ligand (site not stated)); assay: SPR (ProteOn), biotinylated CD3-specific binding domain immobilized, multi-trace 50-0.195 nM, 25 C
T2 construct: also called α-CD3 DARPin
T2 chain: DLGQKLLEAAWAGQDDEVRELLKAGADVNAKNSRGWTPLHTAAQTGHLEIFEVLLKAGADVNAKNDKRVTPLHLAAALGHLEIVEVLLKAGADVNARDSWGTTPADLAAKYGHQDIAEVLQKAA

scCD3εγ [3] = target: T3, scCD3εγ; assay: ELISA: plate-bound biotinylated scCD3εγ, His-tagged construct titrated in presence of 100 nM soluble VEGF
T3 chain 1: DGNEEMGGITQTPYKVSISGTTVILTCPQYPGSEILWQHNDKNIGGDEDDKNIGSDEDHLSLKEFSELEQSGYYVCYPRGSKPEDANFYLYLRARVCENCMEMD
T3 chain 2: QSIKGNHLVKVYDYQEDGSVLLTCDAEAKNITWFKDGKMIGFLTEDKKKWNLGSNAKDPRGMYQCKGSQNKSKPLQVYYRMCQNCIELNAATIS
Method: (§1) The difference in binding of Switchdrug DARPins to scCD3εγ in presence and absence of VEGF was assessed. […] Said Switchdrug DARPins were mixed with a constant concentration of VEGF (100 nM) and tested for binding to scCD3εγ. […] The difference in EC50 of a construct in presence and absence of VEGF can be referred to as the “activation window”.
(§2) Switchdrug DARPins that were mixed with VEGF were titrated and pre-incubated for 1 day with VEGF in order to establish the thermodynamic equilibrium. These samples were loaded on the ELISA plate, incubated and washed, before the bound Switchdrug DARPins were detected as described above.

VEGF165 [4] = target: T1, VEGF165; assay: ELISA: plate-bound biotinylated VEGF165, His-tagged construct titrated, no soluble VEGF, anti-His-HRP detection
Method: Then a titration of the Switchdrug DARPins was applied, incubated and washed. Detection of bound his-tagged constructs was done by anti-RGS(his)4 mAb HRP conjugate, and detected by TMB substrate.

scCD3εγ [5] = target: T3, scCD3εγ; assay: ELISA, biotinylated scCD3εγ on neutravidin plate, with against without 100 nM VEGF
Method: as §1, §2

VEGF165 [6] = target: T1, VEGF165; assay: cell-based or functional assay
[7] = target: T4, 2-in-1 DARPin 22 (SEQ ID NO: 91)
T4 chain: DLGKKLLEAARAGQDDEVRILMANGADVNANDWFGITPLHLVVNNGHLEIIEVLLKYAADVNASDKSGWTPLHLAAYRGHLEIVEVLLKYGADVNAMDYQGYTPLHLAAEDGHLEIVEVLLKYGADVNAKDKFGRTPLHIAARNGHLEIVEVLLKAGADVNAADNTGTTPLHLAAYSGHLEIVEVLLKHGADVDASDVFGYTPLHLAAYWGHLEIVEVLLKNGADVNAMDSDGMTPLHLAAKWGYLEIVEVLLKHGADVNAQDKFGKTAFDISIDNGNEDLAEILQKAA

[8] = target: T5, 2-in-1 DARPin 21 (SEQ ID NO: 90)
T5 chain: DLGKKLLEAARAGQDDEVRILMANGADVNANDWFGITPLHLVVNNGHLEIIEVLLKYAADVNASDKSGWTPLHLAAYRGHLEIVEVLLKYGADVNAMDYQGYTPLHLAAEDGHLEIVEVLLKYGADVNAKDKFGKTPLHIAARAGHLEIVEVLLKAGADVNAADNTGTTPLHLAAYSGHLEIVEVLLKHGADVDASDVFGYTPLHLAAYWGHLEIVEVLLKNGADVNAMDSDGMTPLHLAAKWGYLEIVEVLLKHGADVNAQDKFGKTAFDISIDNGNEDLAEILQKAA

B1: α-CD3 DARPin-blocker (SEQ ID NO: 2) (designed binder)
chain: DLGKKLLQAARAGQLDEVRELLKAGADVNAKDAKGLTPLHLAAYHGHLEIVEVLLKAGADVNAKDVYGWTPLHIAAASGHLEIVEVLLKAGADVNAKDWLGWTPLHLAASHGHLEIVEVLLKAGADVNAQDKSGKTPADLAARAGHQDIAEVLQKAA
B1 was tested, and the binding result (VEGF165 [1]) was “no binding (tested: 50 nM (highest concentration run))”, the Kd [2] was 0.11 nM and the koff [2] was 8.92e-05 s⁻¹. It also gave a kon [2] of 826000 M⁻¹ s⁻¹.

B2: Switchdrug DARPin 17-B (designed binder)
chain: MRGSHHHHHHGSDLGKKLLQAARAGQLDEVRELLKAGADVNAKDSTGWTPLHLAAPWGHPEIVEVLLKAGADVNAKDFQGWTPLHLAAAAGHLEIVEVLLKAGADVNAKDWLGWTPLHLAASHGHLEIVEVLLKAGADVNAQDKSGKTPADLAARAGHQDIAEVLQKAAGSPTPTPTTPTPTPTTPTPTPTGSDLGKKLLQAARAGQLDEVRELLKAGADVNAKDQYGRTPLHLAAIKGHLEIVEVLLKAGADVNAKDSLGYTPLHLAAVEGPLEIVEVLLKAGADVNAKDAYGQTPLHIAAAWGHLEIVEVLLKAVADVNAQDKSGKTPADLAARAGHQDIAEVLQKAAGSPTPTPTTPTPTPTTPTPTPTGSDLGQKLLEAAWAGQDDEVRELLKAGADVNAKNSRGWTPLHTAAQTGHLEIFEVLLKAGADVNAKNDKRVTPLHLAAALGHLEIVEVLLKAGADVNARDSWGTTPADLAAKYGHQDIAEVLQKAA
notes: also called 2-in-1 DARPin17 in Format B
B2 was tested, and the “EC50 (read off the curve)” value (scCD3εγ [3]) was roughly 2 nM, the “EC50 (read off the curve)” value (VEGF165 [4]) was roughly 30 nM and the “activation window (difference in EC50 in presence and absence of VEGF)” value (scCD3εγ [5]) was roughly 178 fold. For the same binder, the “T-cell activation (CD69+ cells of CD8+ T cells, Molm-13 target cells): activation window” value (VEGF165 [6]) was 75 fold.

B3: Aminoglycoside phosphotransferase (APH) (enzyme)
chain: MRGSHHHHHHGSAKMRISPELKKLIEKYRSVKDTEGMSPAKVYKLVGENENLYLKMTDSRYKGTTYDVEREKDMMLWLEGKLPVPKVLHFERHDGWSNLLMSEADGVLCSEEYEDEQSPEKIIELYAECIRLFHSIDISDCPYTNSLDSRLAELDYLLNNDLADVDSENWEEDTPFKDPRELYDFLKTEKPEEELVFSHGDLGDSNIFVKDGKVSGFIDLGRSGRADKWYDIAFCVRSIREDIGEEQYVELFFDLLGIKPDWEKIKYYILLDELF
B3 was tested, and the IC50 [7] was 47 nM and the IC50 [8] was 55 nM.
